Assay results as given in the supplement of paper PMC7125110.
± gives the standard error. Fewer inactive variants are shown than the library holds.

B1: glmS ribozyme (parent)
chain: AUAAAAGCGCCAGAACUACAGAAAUGUAGUUGACGAGGAGGAGGUUUAUCGAAUUUUCGGCGGAUGCCUCCAAA

Assays:
Conditions in all cases: with glucosamine-6-phosphate
glucosamine-6-phosphate [1] = variants of: B1; experiment: self-cleavage kobs at 40 uM GlcN6P; higher = faster cleavage; RNA array
In short: (§1)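 Over ~14 h at 37 °C, tiles were imaged as glucosamine-6-phosphate (40 μM to 10 mM) in HEPES/KCl/Mg(OAc)2 buffer flowed across sequenced MiSeq chips. The chips carried barcoded ribozyme variants transcribed in situ by E. coli RNA polymerase and tracked with a hybridised Cy3 probe. After normalisation to baseline and to non-cleaving reference variants, one- or two-exponential decay fits of per-tile medians gave kobs. kcat and KM followed from weighted Michaelis–Menten fits across concentrations.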

glucosamine-6-phosphate [2] = variants of: B1; experiment: self-cleavage kobs at 160 uM GlcN6P; higher = faster cleavage; RNA array
In short: as §1

glucosamine-6-phosphate [3] = variants of: B1; experiment: self-cleavage kobs at 640 uM GlcN6P; higher = faster cleavage; RNA array
In short: as §1

glucosamine-6-phosphate [4] = variants of: B1; experiment: self-cleavage kobs at 10000 uM GlcN6P; higher = faster cleavage; RNA array
In short: as §1

glucosamine-6-phosphate [5] = variants of: B1; experiment: self-cleavage kobs at 2500 uM GlcN6P; higher = faster cleavage; RNA array
In short: as §1

Variant | self-cleavage kobs at 40 uM GlcN6P (glucosamine-6-phosphate [1]) [s⁻¹] | self-cleavage kobs at 160 uM GlcN6P (glucosamine-6-phosphate [2]) [s⁻¹] | self-cleavage kobs at 640 uM GlcN6P (glucosamine-6-phosphate [3]) [s⁻¹] | self-cleavage kobs at 10000 uM GlcN6P (glucosamine-6-phosphate [4]) [s⁻¹] | self-cleavage kobs at 2500 uM GlcN6P (glucosamine-6-phosphate [5]) [s⁻¹]
AUAAAAGCGCCAGAACUACAGAAAUGUAGUUCACGAGCAGGAGGUUUAUCGAAUUUUCGGCGGAUGCCUCCAAA | < 1e-05 | < 1e-05 | < 1e-05 | – | –
AUAAAAGCGCCAGCACUACAGAAAUGUAGUUGACGAGGAGGAGGUUUAUCGAAUUUUCGGCGGUUGCCUCCAAA | < 1e-05 | < 1e-05 | < 1e-05 | – | –
AUAAAAGCGCCAGAACUACAGAAAUGUAGUUGACGAGGAGGAGGUUUAUCGAAUCUUCGGUGGAUGCUUCCAAA | < 1e-05 | – | – | < 1e-05 | –
AUAAAAGCGCCUGAACUACAGAAAUGUAGUUGACGAGGUGGAGGUUUAUCGAACUUUCGGCGGAUGCCUCCAAA | 0.000713 ± 0.00016 | – | – | 0.0366 ± 0.01 | –
AUAAAAGCGCCAGAACUACAGAAAUGUAGUUGACGAGGAGGAUGUUUAUCGAAUUUUCGGUGGAUGCCUCCAAA | < 1e-05 | < 1e-05 | < 1e-05 | < 1e-05 | < 1e-05
AUAAAAGCGCCAGAACUACAGAAAUGUAUUUGACGAGGGGGAGGUUUAUCGAAUUUUCGGCGGUUGCCUCCAAA | < 1e-05 | – | – | – | –
AUAAAAGCGCCAGGACUACAGAAAUGUACUUGACGAGGAAGAGGUUUAUCGAAUUUUUGGCGGAUGCCUCCAAA | < 1e-05 | – | < 1e-05 | – | –
AUAAAAGCGCCCGAACUACAGAAAUGUAGUUGACGAGGAGGAGGAUUAUCGAAUUUUGGGCGGAUGGCUCCAAA | < 1e-05 | – | – | – | –
AUAAAAGCGCCAGAACUACAGAAAUGUAGUUGACGAGGAGGAGGUUUAUCGAAUUUUCGACGGAUGUCUCCAAA | < 1e-05 | < 1e-05 | – | – | –
AUAAAAGCGCCUGAACUACAGAAAUGUAGUUCACGAGGAGUAGGUUUAUCGAAUUUUCGGAGGAUGCCUCCAAA | < 1e-05 | – | – | – | –
AUAAAAGCGCCAGAACUACAGAAAUGUAGUUGACGAGGAGGAGGUUUAUCGAAUUUUCGGCCGACGCCUCCAAA | < 1e-05 | < 1e-05 | < 1e-05 | – | < 1e-05
AUAAAAGGUCCAGAACUACAGAAAUGUAGUUGACGAGGAGGAGGUUUAUCGAAUUUUCGGCGGAUGCCUCCAAA | < 1e-05 | – | < 1e-05 | – | < 1e-05
AUAAAAGCGCCAGAACUACAGAAAUGUAGUUGACGAGGAGGAGGAUUAUCAAAUUUUCGGCGGAUGCCUCCAAA | < 1e-05 | < 1e-05 | – | – | –
AUAAAAGCGCCAGAACUACAGAAAUGUAGUUGACGAGGACGAGGUUUAUCGAACUUUCGGCGGAUGCCUCCAAA | 8.26e-05 ± 2.6e-05 | – | – | 0.00203 ± 0.00044 | 0.00131 ± 0.00028
AUAAAAGCGCCAGAACUACAGAAAUGUAGUUGACGAGGAGGAGGUUUAGAGAAUUUUCGGCGGAUGCCUCCAAA | < 1e-05 | < 1e-05 | – | – | –
AUAAAAGCGCCAGAACUACAGAAAUGUAGUUGACGAGGAGUAGGUUUAUCGAAUUUUCGGCGGAUGCAUCCAAA | < 1e-05 | < 1e-05 | < 1e-05 | < 1e-05 | < 1e-05

Variant | self-cleavage kobs at 40 uM GlcN6P (glucosamine-6-phosphate [1]) [s⁻¹] | self-cleavage kobs at 160 uM GlcN6P (glucosamine-6-phosphate [2]) [s⁻¹] | self-cleavage kobs at 640 uM GlcN6P (glucosamine-6-phosphate [3]) [s⁻¹] | self-cleavage kobs at 10000 uM GlcN6P (glucosamine-6-phosphate [4]) [s⁻¹] | self-cleavage kobs at 2500 uM GlcN6P (glucosamine-6-phosphate [5]) [s⁻¹]
AUAAAAGCGCCAGAACUACAGAAAUGUAGUGGACGAGGAGGAGGUUUAGGGAAUUUUCGGCGGAUGCCUCCAAA | < 1e-05 | – | – | – | –
AUAAAAGCGCCAGAACUACAGAAAUGUAGUUGAUGAGGACGAGGUUUAUCUAAUUUUCGGAGUAUGCCUCCAAA | < 1e-05 | – | – | – | –
AUAAAAGCGCCAGAACUACAGAAAUGUAGUUGACGUGGAGUAGGUUUAUCGAAUUUUCGGCGGAUGCCUGCAAA | < 1e-05 | – | – | – | –
AUAAAAGCGCCAGAAUUACAGAAAUGUAGUUGACGAGGAGGAGGUUUAUCGAAUUGUCGGCGGAUGCCUCCAAA | 0.000579 ± 9.9e-05 | 0.000979 ± 0.0002 | 0.00302 ± 0.00067 | 0.0241 ± 0.0047 | 0.00709 ± 0.0016
AUAAAAGCGCCGGAAUUACAGAAAUGUAGUUGAAGAGGUGGAGGUUUAUCGAAUUUUCGACGGAUGCCGCCAAA | < 1e-05 | – | – | – | –
AUAAAAGCUCCAGAACUACAGAAAUGUAGUUGACGAAGAGGAGGUUUAUCGAAUUUUCGGCGGAUGCCUCCAAA | < 1e-05 | < 1e-05 | – | – | < 1e-05
AUAAAAGCGCCAGAACUACAGAAAUGUAGUUGACGAGGUGGAGAUUUAUCGAAUUUUCGGCGGAUGCCUCAAAA | < 1e-05 | < 1e-05 | – | – | –
AUAAAAGCGCCAGAACUACAGAAAUGUAGUUUACGAGGAGGAGGUUUAGCGACUUUUCGGCGGAUGCCUCCAAA | < 1e-05 | – | – | – | –
AUAAAAGCGCCAGAACUGCAGAAAUGUAGUUGACGAGGAGGAGGUUUAUCGAAUUUUCGGCGGAUGCCUACAAA | 4.53e-05 ± 2.1e-05 | – | – | 0.000432 ± 0.00014 | –
AUAAAAGCGCCAGAACUACAGAAAUGUAGUUGACGAGGAGGAGGUCUAUCGAAUUUUCGGCGGGUGCCUCCAAA | 0.000191 ± 2.5e-05 | – | – | 0.00537 ± 0.0008 | –
AUAAAAGUGCCAGAACUACAGAAAUGUAGAUGACGAGGAGGAGGUUUAUCGAAUUUUCGGCAGAAGCCUCUAAA | < 1e-05 | – | – | – | –
AUAAAAGCGCCAGAAGUACAGAAAUGUAGUUGACGAGGAGCAGGUUUAUCGAAUUUUCGGCGGAUGCGUCCAAA | < 1e-05 | – | – | < 1e-05 | –
AUAAAAGCGCCAGAACUACAGAAAUGUAGUUGACGAGGAGGAGGUUUAUCGAAUUCUCGGAGGAUGCCUCCAAA | < 1e-05 | < 1e-05 | < 1e-05 | – | –
AUAAAAGCGCAAGAACUACAGAAAUGUAGUUGACGAGGAGGAGGUUUGUCGAAUUUUCGGCGGAUGCCUCCAAA | < 1e-05 | < 1e-05 | < 1e-05 | – | < 1e-05
AUAAAGGCGCUAGAAAUACAGAAAUGUAGUUGACGAGGAGGAGGUUUAUCGAAUUUUCGGCGGGUGCCUCCAAA | < 1e-05 | < 1e-05 | < 1e-05 | < 1e-05 | –
